Reference: paper PMC5628019

Target: MTTR (recombinant monomeric version of TTR), as non-native oligomers (human) (UniProt P02766)

VAVHVF (truncated probe B-1, minimal binding competent sequence) (peptide)
incorporation compared to probe B-1: 90 % less
